In the nanobody polyreactivity screen of Harvey et al. (2022):

Experiment: yeast display, Sf9 membrane polyspecificity reagent, FACS + sequencing; frameworks hold sequencing errors
Summary of the method: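 A nanobody's polyreactivity label depends on the gate it was sorted from. Yeast display cells were stained with 10% biotinylated, detergent-solubilized Sf9 membrane reagent for 1 hour at 4 °C, enriched on streptavidin microbeads and sorted by FACS. The low and high (top ~1%) gates were set on anti-HA fluorescence for expression and streptavidin fluorescence for reagent binding.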

Sequence | polyreactivity (PSR sort gate)
QVQLLESGGGLVQAGGSLRLSCAASGSTFGYYTMGWYRQAPGKERVLVAGISSGGSTNYADSVKGRFTISRDNAKNTVYLQMNSLKQEDTAVYYCDTGSYSYHRGYVTYARFGYWGQGTQVTVSS | low polyreactivity
QVQLVESCGGLVQEGGSLRLSCAASGFTFLRYAMGWYRQAPGKERELVAAISIPGGNTYYADSVKGRFTISRDNAKNTVYLQMNSLKPEDTAVYYCAARFGGGAARHGYWGQGTQVTVSS | high polyreactivity
QVQLVESGRGLVPAGGSLRLSCAASGSTFFKNAMGWYRQAPGNERELVAAITWSGDRTYADSVKGRFTISRDNAKNTVYLQMNSLKPEDTAVYYCNVDITGYEDDEWGQGTQVTVSS | low polyreactivity
QVQLVESGGGLVQAGGSLRLSCAASGNTFPVSYTMGWYRQAPGKEREFVAVITSGGGRTYADSVKGRFTISRDTAKNTVYLQMNSLKPEDTAVYYCAVRPRVSSWKFRSRRYGYWGQGTRVTVSS | high polyreactivity
QVQLVESGGGLVQAGVSLRLSCAASGSIFGYYAMGWYRQAPGKERELVAAINYSGVSTYYADSVKGRFTISRDNAKNTVYLQMNSLKPDDTAVYYCAAKGRKSVYSRNSWGQGTQVTVSS | high polyreactivity
QVQLVESGGGLVQAGGSLRLSCAASGRIFNYYAMGWYRQAPGTERELVAAISTDGGSTYYADSVKGRFTISRDNAKNSVYLQMNSLKPEDTAVYYCAAYQYYDFSYSYDYWGQGTQVTVSS | low polyreactivity
QVQLEESGGCLVQAGGSLRLICAASGSTFDANAMGWYRQAPGKERELVATISDGGSTNYADSVKGRFTISRDNAKNTVYLQMNSLKPEDTSVYYCAALWYYGGKSACPGGGYWGQGTQVTVSS | low polyreactivity
QVQLVESGGCLVQAGGSLRLSCAASGSTFVYNTMGWYRQAPGKERELVASISSDGNTYYADSVKGRFTISRDNAKNTVYLQMNSLKPEDTAVYYCAARYYYDWRFVGYDYWGQGTQVTVSS | low polyreactivity
QVQLVESGGGLVQAGGSLRLSCAASGIILHYYAMGWYRQAPGKQRELVAAISARGGRTYYADSVKGRFTISRDNAKNTVYLQMNSLKPEDTAVYYCAAVTVASPTRMDYWGQGTLVTVSS | high polyreactivity
QVQLQESGGGLVQAGGDLRLSCAASGNIFRDYIMGWYRQAPGKEREFVAGIDRGANTNYADSVKGRFTISRDNAKNTVYLQMNSLKPEDTAVYYCAVHTAIVPDFIYWGQGSQVTVSS | low polyreactivity
QVQLVESGGGLVQAGGSLRLSCAASGIIFNYYAMGWYRQAPGKERELVAAISASGGSTYYADSVKGRFTISRDNAKNTVYLQMNSLKPEDTAVYYCNAAVLYRQYGRGDYWGQGTQVTVSS | low polyreactivity
RVQLVESGGGLVQAGGSLRLSCAASGSIFRGYAMGWYRQAPGKERGLVAAITSGGSTNYADSVKGRFTISRDNAKNTVYLQMNSLKPEDTAVYYCAKDLALVAPLSDYWGQGTQVTVSS | low polyreactivity
QDQLVESGGGLVQAGGSLRLSCAASGRTFSTYAMGWYRQAHGKERELVARITSSGGSTYFADSVKGRFTISRDNAKNTVYLQMNSLKPEDTAVYYCAADAWSYWGYPYWWGYDYWGQGTQVTVSS | high polyreactivity
QVQLQESGGVLVQAVDRQRLSCAASGNIFLFTDMGWYRQAPGKERELVAAINAGSTTYYADSVKGRFTISRDNAKNTVYLQMNSLNPEDTEVYYCAVYYLGSGTFGYWGQGAQVTVSS | high polyreactivity
QVQLVESGGGLVQAGGSLRLSCAASGSTFVINAMGWYRQAPGKERELVAAISYDGGGTYYADSVKGRFTISRDNAKNTVYLQMNSLKPEDTAVYYCAAENFYPYTYYASDYWGQGTQVTVSS | high polyreactivity
QVQLVESCGGLVQAGGSLRLSCAASGRISQNAMGWYRQPPVKERELVAAITFSGGSTYYADSVKGRFTISRDNAKNTVYLQMNSLKPEDTAVYYCNGDYGDWPTAGDYWGQGTQVTVSS | low polyreactivity

Sequence | polyreactivity (PSR sort gate)
QVQLVESGGGLVQAGGSLRLSCAASGIIFASNAMGWYRQAPGKQRELVATINWTDSSTYYADSVKGRFTISRDNAKNTVYLQMNSLKPEDTAVYYCAVVDVEEHVGHWGQGTQVTVSS | low polyreactivity
QVQLVESGGGLVQAGGSLRLSCAASGSTFDVYAMGWYRQAPGKERELVAAITWIGGSTYYADSVKGRFTISRDNAKNTVYLQMNSLKPDDTAVYYCARHDYGWVDYWGQGTQVTVSS | high polyreactivity
QVLLVESGGGLVQAGGSLRLSSAASGSTYRNAMGWYRQAPGKERELVAAISSSGGRTYYADSVKGRFTISRDNAKNTVYLQMNSLKPDDTAVYYCAAPRFAAPSRIGYDWGQGTQVTVSS | high polyreactivity
QVQLVESGGGLVQAGGSLRLSCPASGRIFLGNLMGWYRQAPGKERELVAAISWSGGSTYADSVKGRFTISRDNAKNTVYFQMNSLKPEDTAVYYCAKDEGTFYNSYDYWGQGTQVTVSS | low polyreactivity
QVQLVESGGGLVQAGGSLRLSCAASGFIFYRYAMGWYRQAPGKERELVAAISYSGGSTYYADSVKGRFTISRDNAKNTVYLQMNSLKPEDTAVYYCAAGSKYRYDYWGQGTQVTVSS | high polyreactivity
QVQLVESGGGLVQAGGSLRLSCAASGRIFDYYAMGWYRQAPGKERELVAAITSSTGSTYYADSVKGRFTISRDNAKNTVYLQMNSLKPEDTAVYYCAAERTYLDRGFDYWGQGTQVTVSS | low polyreactivity
QVQLVESGGGLVQAGGSLRLSCAASGFIFVYYAMGWYRQAPGKERELVAAISGHGGRTYYADSVKGRFTISRDNAKNTVYLQMNSLKPEDTAVYYCAALLYWRGYGYNYWGQGTQVTVSS | high polyreactivity
QVHLVESVGGLVQAGGSLRLSCAASGYIFGGYAMAWYRQAPGKERELVAAISRSGGSTYYADSVKGRFTISRDNAKNTVYLQINSLKPVDTAVYYCAVRGYTLPYGYWGQGTQVTVSS | high polyreactivity
QVQLVESGGGLVQAGGSLRLSSAASGLIFSVNAMGWYRQAPGKESEMIAAISKSGGRTYYADSVKGRFTISRDNAKNTVYLQMNSLKPEDTAVYYCAKRSRWNYKGYGTCGYYWGQGTQVTVSS | high polyreactivity
QVQLVESGGGLVQAGGSLRLSCGASGNTINVNTMGWYRQGPGKERELVAAINSGDNTNYADSVKGRFTISRDNAKNTVYLQMNSLNPVDTAVYSCAAQDYARGVVPGRRAIGYWGQCTQVTVSS | high polyreactivity
QVQLVESGGGLVQAGGSLRLSCAASGSTFYYYAMGWSRQAPGQERELVAAISWRGSSTYYADAVQGRFTISRDNAKNTVYLQLNSLKPEDTAVSYCAAGYPGRVSGYRYGTRATYYYWGQGTQVTVSS | high polyreactivity
QVQLVESGGGLVQAGGSLRLSCAASVFIFAIYAMGWYRQAPGKERELVADINSDGSTYYADSVKGRFTISRDNAKNTVYLQMNSLKPEDTAVYYCNAETAGHDMDYWGQGTQVTVSS | low polyreactivity
QVQLVESGGGLVQAGGSLRLSCAASGFTFVRNTMGWYRQAPGKERELVAAISRSGGSTYYADSVKGRFTISRDNAKNTVYLQMYSLKPEDTAVYYCNAYRYVHYDWGQGSQVTVSS | high polyreactivity
QVQLVESGGGLVQAGGSLRLSCAASGSTFRGYVMGWYRQAPGQERELVAVINSSGGRTYYADSVKGRFTISRDNAKNTVYLQMNSLKPEDTAVYYCAARVLQYSGYYYWGQGTQVTVSS | high polyreactivity
QVQLVESGGRLVQAGGSHRLSCAASGFIFYDYAMGWYIQAPGKERELVAVITRGGSTYYADSVKGRFTISRDNAKNTVYLLMNSLKPEDTAVYYCAAYWFTPGFTFDYWGQGTQVTVSS | low polyreactivity
QVQLVESVGGLVQAGGSLRLSCAAYGRTFAPNAMLWYRQAPGKESELVAAISWSGTSTYYADSVKGRFTISRDNSKNTVYLQMYSLKPEDTAFYDCAADMEGRVGSPWTYDYWGQGTQVTVSS | low polyreactivity
